The source of these data is US20130252251A1 (CENTRE NATIONAL DE LA RECHERCHE SCIENTIFIQUE, published 2013).

Assay [1] concerns the target membrane receptor interacting with BLV. Nature of the assay: flow cytometry, tagged RBD on blood neutrophils of rheumatoid arthritis patients (N=9).
Assay [2] shares this target. Nature of the assay: flow cytometry, tagged RBD on blood neutrophils of healthy control donors (N=8). On the technique in general: A flow cytometer gives signals particle by particle.
The target is the same in assay [3]. Nature of the assay: flow cytometry, tagged RBD on sputum neutrophils of one CF patient.
Assay [4] shares this target. Nature of the assay: flow cytometry, tagged RBD on blood neutrophils of one CF patient.
The target of assay [5] is PAR (PeRV A Receptor) receptors: human Riboflavin Transporter 1 (hRFT1 or PAR2) and hRFT3 (or PAR1). Nature of the assay: flow cytometry, tagged RBD on blood neutrophils of rheumatoid arthritis patients (N=9).
For assay [6] the target is unchanged. Nature of the assay: flow cytometry, tagged RBD on blood neutrophils of healthy control donors (N=8).
Assay [7] has the same target. Nature of the assay: flow cytometry, tagged RBD on sputum neutrophils of one CF patient.
For assay [8] the target is unchanged. Nature of the assay: flow cytometry, tagged RBD on blood neutrophils of one CF patient.
Assay [9] deals with T1, GLUT1 membrane receptor (human, UniProt P11166 1-492).
T1 construct: whole, on cells; Endogenous receptor on primary blood or sputum neutrophils
T1 sequence: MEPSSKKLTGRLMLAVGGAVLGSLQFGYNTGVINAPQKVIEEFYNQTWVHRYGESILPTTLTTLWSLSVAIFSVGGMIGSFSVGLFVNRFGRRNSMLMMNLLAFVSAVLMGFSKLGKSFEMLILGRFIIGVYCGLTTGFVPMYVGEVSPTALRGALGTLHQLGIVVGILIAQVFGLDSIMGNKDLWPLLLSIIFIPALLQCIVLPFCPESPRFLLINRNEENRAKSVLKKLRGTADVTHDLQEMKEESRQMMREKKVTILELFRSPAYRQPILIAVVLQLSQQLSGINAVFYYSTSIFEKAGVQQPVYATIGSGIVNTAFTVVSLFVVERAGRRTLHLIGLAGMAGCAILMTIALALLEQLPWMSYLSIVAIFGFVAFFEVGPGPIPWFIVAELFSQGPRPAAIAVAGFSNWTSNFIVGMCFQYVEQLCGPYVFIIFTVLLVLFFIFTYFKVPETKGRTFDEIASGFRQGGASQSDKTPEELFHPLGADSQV
As to the kind of experiment: flow cytometry, tagged RBD on blood neutrophils of rheumatoid arthritis patients (N=9).

Assay [10] concerns the target T1, GLUT1 membrane receptor. Nature of the assay: flow cytometry, tagged RBD on blood neutrophils of healthy control donors (N=8).
The target in assay [11] is T2, PiT2 membrane receptor (human, UniProt Q08357 1-652).
T2 construct: whole, on cells; Endogenous receptor on primary blood or sputum neutrophils; also called FiT2
T2 sequence: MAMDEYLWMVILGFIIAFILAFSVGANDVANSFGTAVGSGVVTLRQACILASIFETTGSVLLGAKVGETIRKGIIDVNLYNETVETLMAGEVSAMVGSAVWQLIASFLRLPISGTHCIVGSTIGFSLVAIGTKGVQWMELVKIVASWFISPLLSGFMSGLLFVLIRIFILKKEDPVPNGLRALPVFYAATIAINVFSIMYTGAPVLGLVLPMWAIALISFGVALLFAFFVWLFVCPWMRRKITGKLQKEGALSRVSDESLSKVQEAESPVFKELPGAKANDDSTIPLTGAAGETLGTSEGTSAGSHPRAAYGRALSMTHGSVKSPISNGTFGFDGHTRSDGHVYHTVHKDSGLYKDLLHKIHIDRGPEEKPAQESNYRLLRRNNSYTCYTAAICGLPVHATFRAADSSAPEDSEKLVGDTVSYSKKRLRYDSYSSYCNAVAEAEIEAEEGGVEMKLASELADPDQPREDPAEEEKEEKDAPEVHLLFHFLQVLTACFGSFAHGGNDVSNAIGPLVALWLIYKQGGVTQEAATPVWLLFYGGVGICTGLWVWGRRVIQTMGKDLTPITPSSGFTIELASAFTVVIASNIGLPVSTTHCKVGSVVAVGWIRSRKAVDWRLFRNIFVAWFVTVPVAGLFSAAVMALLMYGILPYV
As to the kind of experiment: flow cytometry, tagged RBD on blood neutrophils of rheumatoid arthritis patients (N=9).

The target of assay [12] is T2, PiT2 membrane receptor. As to the kind of experiment: flow cytometry, tagged RBD on blood neutrophils of healthy control donors (N=8).
Assay [13] has as its target T3, PiT1 membrane receptor (human, UniProt Q8WUM9 1-679).
T3 construct: whole, on cells; Endogenous receptor on primary blood or sputum neutrophils
T3 sequence: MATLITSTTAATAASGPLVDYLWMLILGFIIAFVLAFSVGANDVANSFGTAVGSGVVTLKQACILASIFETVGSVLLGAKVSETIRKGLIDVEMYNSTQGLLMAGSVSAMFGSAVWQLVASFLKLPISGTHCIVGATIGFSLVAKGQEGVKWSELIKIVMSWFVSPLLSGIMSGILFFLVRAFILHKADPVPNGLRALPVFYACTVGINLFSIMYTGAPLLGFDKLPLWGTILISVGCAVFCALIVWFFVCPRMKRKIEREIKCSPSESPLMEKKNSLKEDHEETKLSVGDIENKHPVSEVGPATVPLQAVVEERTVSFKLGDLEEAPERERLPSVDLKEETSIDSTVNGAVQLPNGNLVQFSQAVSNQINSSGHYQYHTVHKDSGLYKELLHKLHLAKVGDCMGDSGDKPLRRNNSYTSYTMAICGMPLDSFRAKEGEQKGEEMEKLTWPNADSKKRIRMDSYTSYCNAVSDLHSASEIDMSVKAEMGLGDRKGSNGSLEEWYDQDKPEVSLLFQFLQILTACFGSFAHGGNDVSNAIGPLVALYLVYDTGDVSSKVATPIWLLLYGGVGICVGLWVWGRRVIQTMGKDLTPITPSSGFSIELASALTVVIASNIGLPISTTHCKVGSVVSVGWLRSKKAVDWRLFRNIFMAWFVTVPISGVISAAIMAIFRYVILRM
Nature of the assay: flow cytometry, tagged RBD on blood neutrophils of rheumatoid arthritis patients (N=9).

In assay [14] the target is T3, PiT1 membrane receptor. As to the kind of experiment: flow cytometry, tagged RBD on blood neutrophils of healthy control donors (N=8).
Assay [15] addresses T4, ASCT2 membrane receptor (human, UniProt Q15758 1-541).
T4 construct: whole, on cells; Endogenous receptor on primary blood or sputum neutrophils; also called ASTC2
T4 sequence: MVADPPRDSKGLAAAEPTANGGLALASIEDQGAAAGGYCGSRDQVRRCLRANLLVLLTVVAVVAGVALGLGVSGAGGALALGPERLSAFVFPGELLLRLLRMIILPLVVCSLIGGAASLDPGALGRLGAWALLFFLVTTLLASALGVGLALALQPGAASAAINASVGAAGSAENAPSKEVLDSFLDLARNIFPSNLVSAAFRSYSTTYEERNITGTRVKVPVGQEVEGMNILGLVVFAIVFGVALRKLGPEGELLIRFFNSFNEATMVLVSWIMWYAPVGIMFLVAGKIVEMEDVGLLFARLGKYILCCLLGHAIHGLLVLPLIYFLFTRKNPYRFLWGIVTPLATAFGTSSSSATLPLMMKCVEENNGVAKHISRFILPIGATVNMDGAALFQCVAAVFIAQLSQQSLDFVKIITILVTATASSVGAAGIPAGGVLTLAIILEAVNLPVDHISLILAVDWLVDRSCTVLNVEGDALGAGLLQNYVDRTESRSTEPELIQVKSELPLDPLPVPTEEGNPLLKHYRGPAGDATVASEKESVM
Nature of the assay: flow cytometry, tagged RBD on blood neutrophils of rheumatoid arthritis patients (N=9).

Assay [16] has as its target T4, ASCT2 membrane receptor. Nature of the assay: flow cytometry, tagged RBD on blood neutrophils of healthy control donors (N=8).

Take “Bovine Leukaemia Virus receptor-binding domain (BLV RBD) (from UniProt P25507 34-215) (ligand)”: the deltaMedian of fluorescence (median) in assay [1] amounted to 2750; in assay [2], 3550. Moreover, the deltaGeomean of fluorescence came out at 140 in assay [3] and 0 in [4].

“Porcine Endogeneous Retrovirus-A receptor-binding domain (PERVA RBD) (ligand)”: the results for the deltaMedian of fluorescence (median) in assay [5] and in [6] were 2320 and 3740, respectively. The deltaGeomean of fluorescence in assay [7] worked out at 284; in [8], 4160.

B1: Human T Leukaemia Virus-2 receptor-binding domain (HTLV-2 RBD) (ligand)
chain: QQSRCTLTVGISSYHSSPCSPTQPVCTWNLDLNSLTTDQRLHPPCPNLITYSGFHKTYSLYLFPHWIKKPNRQGLGYYSPSYNDPCSLQCPYLGCQSWTCPYTGPVSSPSWKFHSDVNFTQEVSQVSLRLHFSKCGSSMTLLVDAPGYDPLWFITSEPTQPPPTSPPLVHDSDLEHVLTPSTSWTTKILKFIQLTLQSTNYSCMVC
notes: not shown: tag: EGFP, mouse-IgG Fc or rabbit-IgG Fc
Regarding B1, the “deltaMedian of fluorescence (median)” value turned out to be 3180 in assay [9] and 4670 in [10].

B2: Amphotropic Murine Leukemia Retrovirus receptor-binding domain (AMLV RBD) (ligand)
chain: AESPHQVFNVTWRVTNLMTGRTANATSLLGTVQDAFPKLYFDLCDLVGEEWDPSDQEPYVGYGCKYPAGRQRTRTFDFYVCPGHTVKSGCGGPGEGYCGKWGCETTGQAYWKPTSSWDLISLKRGNTPWDTGCSKVACGPCYDLSKVSNSFQGATRGGRCNPLVLEFTDAGKKANWDGPKSWGLRLYRTGTDPITMFSLTRQVLNVGPRVPIGPNPVLPDQRLPSSPIEIVPAPQPPSPLNTSYPPSTTSTPSTSPTSPSVPQPPPGTGDRLLALVKGAYQALNLTNPDKTQECWLC
notes: as for B1
In the case of B2, the results for the “deltaMedian of fluorescence (median)” value in assay [11] and in assay [12] were 2860 and 3930, respectively.

B3: Koala endogeneous Retrovirus receptor-binding domain (KoRV RBD) (ligand)
chain: NQQHNNPHQPMTLTWQVLSQTGSVVWEKKAVEPPWTWWPSLEPDVCALVAGLESWDIPELTASASQQARPPDSNYEHAYNQITWGTLGCSYPRARTRIARSQFYVCPRDGRSLSEARRCGGLESLYCKEWGCETAGTAYWQPRSSWDLITVGQGHPTGTCERTGWCNPLKIEFTEPGKRFRNWLQGRTWGLRFYVTGHPGVQLTIRLVITSPPPVVVGPDPVLAEQGPPRKIPFLPRVPVPTLSPPASPIPTVQASPPAPSTPSPTTGDRLFGLVQGAFLALNATNPEATESCWLC
notes: as for B1
Take B3: the “deltaMedian of fluorescence (median)” value in assay [13] was 1880; in assay [14], 2640.

B4: Feline endogenous retrovirus receptor-binding domain (RD114 RBD) (ligand)
chain: GFDDPRKAIALVQKQHGKPCECSGGQVSEAPPNSIQQVTCPGKTAYLMTNQKWKCRVTPKISPSGGELQNCPCNTFQDSMHSSCYTEYRQCRRINKTYYTATLLKIRSGSLNEVQILQNPNQLLQSPCRGSINQPVCWSATAPIHISDGGGPLDTKRVWTVQKRLEQIHKAMTPELQYHPLALPKVRDDLSLDARTFDILNTTFRLLQMSNFSLAQDCWLC
notes: as for B1
Turning to B4, the figures for the “deltaMedian of fluorescence (median)” value in [15] and in assay [16] were 1650 and 1630, respectively.
